Test results taken from US20230241243A1, “CARRIER PARTICLE-DRUG CONJUGATES, SELF-IMMOLATIVE LINKERS, AND USES THEREOF” (priority 2020, published 2023).

Test: Drug-release assay of nanoparticle-conjugated linker-payloads under cleavage conditions (Cat-B, redox-responsive or pH-sensitive cleaving study), RP-HPLC
Type: in vitro ADME
Conditions: linker-payload conjugated to DBCO-functionalized silica nanoparticle, 37° C., 24 hours
Experimental: To assess the drug releasing profile of exemplary linker-drug conjugates, the linker-drug conjugates were each conjugated to a DBCO-functionalized ultrasmall silica nanoparticle via a click chemistry reaction between the azide groups on the linker-drug conjugate precursors and the dibenzocyclooctyne (DBCO) groups of the nanoparticles. The resulting drug-nanoparticle-conjugates were then incubated under the desired releasing conditions for release kinetics tests.
The amount of released drugs vs non-released drugs was measured using reverse phase HPLC by analyzing the area under curve (AUC) (FIG. 10A and FIG. 10B).
General Method: A Waters Xbridge Peptide BEH C18 column with 4.6 mm×50 mm dimensions, a particle size of 5 μm, and a pore size of 300 A was used (part number 186003622). Acetonitrile (VWR HiPerSolv Chromanorm, UHPLC Grade) was used as received without further preparation, […] trifluoroacetic acid in deionized water was prepared by adding 1 mL of trifluoroacetic acid (HPLC grade, Millipore-Sigma) into 999 mL 18.2 MΩ·cm deionized water that was generated using an IQ7000 Millipore deionized water system and passed through a 0.2 μm filter before use. The seal wash used for the system was composed of 90% 18.2 MΩ·cm deionized water and 10% methanol (HPLC grade, VWR). The injection needle was washed using a mixture of 25 vol % 18.2 MΩ·cm deionized water, 25 vol % acetonitrile, 25 vol % methanol, and 25 vol % 2-propanol. Samples were prepared in a concentration range of 0.25 to 2 μM and the injection volume ranges from 60 μL to 10 μL, respectively. Higher sample concentration can be used if detector signal is low. Vials used for all injections are fresh Waters Total Recovery vials with screw caps that have pre-slit PTFE septa (part number 186000385C).
Method for Protease-cleavable and Redox-responsive Linkers: Before any sample injections were started, the PDA lamp was turned on and allowed to warm up for at least 30 minutes. The system and column were equilibrated with 95% 0.01% TFA in deionized water, 5% acetonitrile for at least 10 minutes at a flow rate of 1.0 mL/min after the PDA lamp had warmed up. Two blank injections, with injection volumes of 10 μL containing only 18.2 MΩ·cm deionized water, were performed before the injection of any samples for analysis. The gradient used to elute protease-cleavable and redox-sensitive linkers conjugated to hybrid silica nanoparticles, and their components began at 95% 0.01% TFA in deionized water and 5% acetonitrile and linearly changed to 15% 0.01% TFA in deionized water, 85% acetonitrile over 8 minutes. Acetonitrile composition was increased to 95% over an additional minute and held at 95% for an additional 2 minutes to ensure that any strongly retained compounds are eluted. The composition of the solvent was then changed back to the starting composition of the gradient over an additional minute and allowed to equilibrate for 3 minutes before another injection began. Between sample injections a blank injection was run to ensure that no carryover occurred.
Method for pH-sensitive Linkers: Before any sample injections were started, the PDA lamp was turned on and allowed to warm up for at least 30 minutes. A gradient of pure deionized water and acetonitrile was used, all other consumables including column and vials were the same as for the method to purify Cat-B sensitive and redox-responsive linkers elaborated on above. Briefly the gradient composition began at 95% deionized water and 5% acetonitrile at a flow rate of 1.0 mL/min (not changed throughout the method). The composition was changed from this starting composition to 15% deionized water and 85% acetonitrile over a 12-minute period, during which the retained drug-linkers, released drug, free drug linker, and any other impurities eluted. At the 12-minute mark the composition was rapidly changed to 5% deionized water and 95% acetonitrile over the course of one minute. […]

Compound | % of Payload Release in 24 Hours Under Cleavage Conditions
CCc1c2c(nc3ccc(OC(C(=O)N(C)C)c4ccc(NC(=O)[C@H](CCCNC(N)=O)NC(=O)[C@@H](NC(=O)CCOCCOCCOCCOCCOCCOCCOCCOCCOCCOCCOCCN=[N+]=[N-])C(C)C)cc4)cc13)-c1cc3c(c(=O)n1C2)COC(=O)[C@]3(O)CC (stereo partly drawn) [Example 20, 1-azido-N-((2S)-1-(((2S)-1-((4-(1-(((s)-4,11-diethyl-4-hydroxy-3,14-dioxo-3,4,12,14-tetrahydro-1H-pyrano[3′,4′:6,7]indolizino[1,2-b]quinolin-9-yl)oxy)-2-(dimethylamino)-2-oxoethyl)phenyl)amino)-1-oxo-5-ureidopentan-2-yl)amino)-3-methyl-1-oxobutan-2-yl)-3,6,9,12,15,18,21,24,27,30,33-undecaoxahexatriacontan-36-amide] | + (‘+’ indicates 5-25% release)
CCc1c2c(nc3ccc(OCc4c(F)cc(NC(=O)[C@H](CCCNC(N)=O)NC(=O)[C@@H](NC(=O)CCOCCOCCOCCOCCOCCOCCOCCOCCOCCN=[N+]=[N-])C(C)C)cc4F)cc13)-c1cc3c(c(=O)n1C2)COC(=O)[C@]3(O)CC [Example 21, 1-Azido-N-((S)-1-(((S)-1-((4-((((S)-4,11-diethyl-4-hydroxy-3,14-dioxo-3,4,12,14-tetrahydro-1H-pyrano[3′,4′:6,7]indolizino[1,2-b]quinolin-9-yl)oxy)methyl)-3,5-difluorophenyl)amino)-1-oxo-5-ureidopentan-2-yl)amino)-3-methyl-1-oxobutan-2-yl)-3,6,9,12,15,18,21,24,27-nonaoxatriacontan-30-amide] | + (‘+’ indicates 5-25% release)
CCc1c2c(nc3ccc(OCc4c(F)cc(NC(=O)[C@H](CCCNC(N)=O)NC(=O)[C@@H](NC(=O)CCOCCOCCOCCOCCOCCOCCOCCOCCOCCOCCOCCN=[N+]=[N-])C(C)C)cc4F)cc13)-c1cc3c(c(=O)n1C2)COC(=O)[C@]3(O)CC [Example 22, 1-azido-N-((S)-1-(((S)-1-((4-((((S)-4,11-diethyl-4-hydroxy-3,14-dioxo-3,4,12,14-tetrahydro-1H-pyrano[3′,4′:6,7]indolizino[1,2-b]quinolin-9-yl)oxy)methyl)-3,5-difluorophenyl)amino)-1-oxo-5-ureidopentan-2-yl)amino)-3-methyl-1-oxobutan-2-yl)-3,6,9,12,15,18,21,24,27,30,33-undecaoxahexatriacontan-36-amide] | + (‘+’ indicates 5-25% release)
CC[C@@]1(O)C(=O)OCc2c1cc1n(c2=O)Cc2c-1nc1cc(F)c(C)c3c1c2[C@@H](NCc1c(F)cc(NC(=O)[C@H](CCCNC(N)=O)NC(=O)[C@@H](NC(=O)CCOCCOCCOCCOCCOCCOCCOCCOCCOCCOCCOCCN=[N+]=[N-])C(C)C)cc1F)CC3 [Example 23, 1-azido-N-((S)-1-(((S)-1-((4-((((1S,9S)-9-ethyl-5-fluoro-9-hydroxy-4-methyl-10,13-dioxo-2,3,9,10,13,15-hexahydro-1H,12H-benzo[de]pyrano[3′,4′:6,7]indolizino[1,2-b]quinolin-1-yl)amino)methyl)-3,5-difluorophenyl)amino)-1-oxo-5-ureidopentan-2-yl)amino)-3-methyl-1-oxobutan-2-yl)-3,6,9,12,15,18,21,24,27,30,33-undecaoxahexatriacontan-36-amid] | + (‘+’ indicates 5-25% release)
CC[C@@]1(O)C(=O)OCc2c1cc1n(c2=O)Cc2c-1nc1cc(F)c(C)c3c1c2[C@@H](NC(=O)C(=O)c1ccc(NC(=O)[C@H](CCCNC(N)=O)NC(=O)[C@@H](NC(=O)CCOCCOCCOCCOCCOCCOCCN=[N+]=[N-])C(C)C)cc1)CC3 [Example 24, 1-azido-N-((S)-1-(((S)-1-((4-(2-(((1S,9S)-9-ethyl-5-fluoro-9-hydroxy-4-methyl-10,13-dioxo-2,3,9,10,13,15-hexahydro-1H,12H-benzo[de]pyrano[3′,4′:6,7]indolizino[1,2-b]quinolin-1-yl)amino)-2-oxoacetyl)phenyl)amino)-1-oxo-5-ureidopentan-2-yl)amino)-3-methyl-1-oxobutan-2-yl)-3,6,9,12,15,18-hexaoxahenicosan-21-amide] | + (‘+’ indicates 5-25% release)
CC[C@@]1(O)C(=O)OCc2c1cc1n(c2=O)Cc2c-1nc1cc(F)c(C)c3c1c2[C@@H](NC(=O)OCc1ccc(NC(=O)[C@H](CCCCN)NC(=O)[C@H](Cc2ccccc2)NC(=O)CCOCCOCCOCCOCCOCCOCCOCCOCCOCCOCCN=[N+]=[N-])cc1)CC3 [Example 26, 4-((35S,38S)-38-(4-aminobutyl)-1-azido-35-benzyl-33,36-dioxo-3,6,9,12,15,18,21,24,27,30-decaoxa-34,37-diazanonatriacontan-39-amido)benzyl ((1S,9S)-9-ethyl-5-fluoro-9-hydroxy-4-methyl-10,13-dioxo-2,3,9,10,13,15-hexahydro-1H,12H-benzo[de]pyrano[3′,4′:6,7]indolizino[1,2-b]quinolin-1-yl)carbamate] | + (‘+’ indicates 5-25% release)
CC[C@@]1(O)C(=O)OCc2c1cc1n(c2=O)Cc2c-1nc1cc(F)c(C)c3c1c2[C@@H](NC(=O)OCc1ccc(NC(=O)[C@H](CCCNC(N)=O)NC(=O)[C@@H](NC(=O)CCCCCCN=[N+]=[N-])C(C)C)cc1)CC3 [Example 30, 4-((S)-2-((S)-2-(7-Azidoheptanamido)-3-methylbutanamido)-5-ureidopentanamido)benzyl ((1S,9S)-9-ethyl-5-fluoro-9-hydroxy-4-methyl-10,13-dioxo-2,3,9,10,13,15-hexahydro-1H,12H-benzo[de]pyrano[3′,4′:6,7]indolizino[1,2-b]quinolin-1-yl)carbamate] | ++ (‘++’ indicates 26-50% release)
CCc1c2c(nc3ccc(OCCCNC(=O)OCc4ccc(NC(=O)[C@H](CCCCN)NC(=O)[C@@H](NC(=O)CCOCCOCCOCCOCCOCCOCCOCCOCCOCCN=[N+]=[N-])C(C)C)cc4)cc13)-c1cc3c(c(=O)n1C2)COC(=O)[C@]3(O)CC [Example 31, 4-((32S,35S)-35-(4-aminobutyl)-1-azido-32-isopropyl-30,33-dioxo-3,6,9,12,15,18,21,24,27-nonaoxa-31,34-diazahexatriacontan-36-amido)benzyl (3-(((S)-4,11-diethyl-4-hydroxy-3,14-dioxo-3,4,12,14-tetrahydro-1H-pyrano[3′,4′:6,7]indolizino[1,2-b]quinolin-9-yl)oxy)propyl)carbamate] | + (‘+’ indicates 5-25% release)
CCc1c2c(nc3ccc(OCCCNC(=O)OCc4ccc(NC(=O)[C@H](CCCCN)NC(=O)[C@H](Cc5c[nH]c6ccccc56)NC(=O)CCOCCOCCOCCOCCOCCOCCOCCOCCOCCN=[N+]=[N-])cc4)cc13)-c1cc3c(c(=O)n1C2)COC(=O)[C@]3(O)CC [Example 32, 4-((32S,35S)-32-((1H-indol-3-yl)methyl)-35-(4-aminobutyl)-1-azido-30,33-dioxo-3,6,9,12,15,18,21,24,27-nonaoxa-31,34-diazahexatriacontan-36-amido)benzyl (3-(((S)-4,11-diethyl-4-hydroxy-3,14-dioxo-3,4,12,14-tetrahydro-1H-pyrano[3′,4′:6,7]indolizino[1,2-b]quinolin-9-yl)oxy)propyl)carbamate] | + (‘+’ indicates 5-25% release)
